Here are results for one substance from paper PMC4507770.

For this test, the target named is GST–XJTGB3 fusion protein (BSMV Xinjiang strain TGB3) (barley stripe mosaic virus, Xinjiang strain). In words: pull-down.

“XJTGB1_(T395A/T401A) double mutant, C-terminal His-tagged (natural protein)” had a TGB3 protein-binding efficiency compared with wt XJTGB1 of 40% and a percent less effective binding than wt XJTGB1 of 40 % less.
